# T1: FcγRIIb extracellular domain with C-terminal His tag (human, UniProt P31994 43-217)
# T1 construct: extracellular domain; expressed in FreeStyle293 cells; analyte in the Biacore assay; also called FcgRIIb; 2b; not shown: His tag at the C terminus
# T1 sequence (looked up): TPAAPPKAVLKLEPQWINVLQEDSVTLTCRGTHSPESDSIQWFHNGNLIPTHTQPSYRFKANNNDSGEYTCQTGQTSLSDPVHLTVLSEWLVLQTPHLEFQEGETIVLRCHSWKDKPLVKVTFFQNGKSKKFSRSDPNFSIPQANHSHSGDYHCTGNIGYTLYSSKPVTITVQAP
# Target: T1, FcγRIIb extracellular domain with …
# Test: SPR (Biacore), captured antibody, FcγRIIb analyte; binding relative to GpH7-A5/GpH7-B3/GpL16-k0 = 100
row,Binder,He/Con_2b
1,"GpH7-A5/GpH7-B3 variant K326_07I/GpL16-k0 (antibody, human IgG1, kappa, heterodimerized; mutation in the B3 H chain only; also called He Ab K326_07I) heavy 1: not shown heavy 2: not shown light: DIVMTQSPLSLPVTPGEPASISCQASESLVHSNRNTYLHWYLQKPGQSPQLLIYKVSNRFSGVPDRFSGSGSGTDFTLKISRVEAEDVGVYYCSQNTHVPPTFGQGTKVEIERTVAAPSVFIFPPSDEQLKSGTASVVCLLNNFYPREAKVQWKVDNALQSGNSQESVTEQDSKDSTYSLSSTLTLSKADYEKHKVYACEVTHQGLSSPVTKSFNRGEC",199 % of control
2,"GpH7-A5/GpH7-B3 variant A327_09D/GpL16-k0 (antibody, human IgG1, kappa, heterodimerized; mutation in the B3 H chain only; also called He Ab A327_09D) heavy 1: not shown heavy 2: not shown light: DIVMTQSPLSLPVTPGEPASISCQASESLVHSNRNTYLHWYLQKPGQSPQLLIYKVSNRFSGVPDRFSGSGSGTDFTLKISRVEAEDVGVYYCSQNTHVPPTFGQGTKVEIERTVAAPSVFIFPPSDEQLKSGTASVVCLLNNFYPREAKVQWKVDNALQSGNSQESVTEQDSKDSTYSLSSTLTLSKADYEKHKVYACEVTHQGLSSPVTKSFNRGEC",172 % of control
3,"GpH7-A5/GpH7-B3 variant A327_10E/GpL16-k0 (antibody, human IgG1, kappa, heterodimerized; mutation in the B3 H chain only; also called He Ab A327_10E) heavy 1: not shown heavy 2: not shown light: DIVMTQSPLSLPVTPGEPASISCQASESLVHSNRNTYLHWYLQKPGQSPQLLIYKVSNRFSGVPDRFSGSGSGTDFTLKISRVEAEDVGVYYCSQNTHVPPTFGQGTKVEIERTVAAPSVFIFPPSDEQLKSGTASVVCLLNNFYPREAKVQWKVDNALQSGNSQESVTEQDSKDSTYSLSSTLTLSKADYEKHKVYACEVTHQGLSSPVTKSFNRGEC",140 % of control
4,"GpH7-A5/GpH7-B3 variant A330_01G/GpL16-k0 (antibody, human IgG1, kappa, heterodimerized; mutation in the B3 H chain only; also called He Ab A330_01G) heavy 1: not shown heavy 2: not shown light: DIVMTQSPLSLPVTPGEPASISCQASESLVHSNRNTYLHWYLQKPGQSPQLLIYKVSNRFSGVPDRFSGSGSGTDFTLKISRVEAEDVGVYYCSQNTHVPPTFGQGTKVEIERTVAAPSVFIFPPSDEQLKSGTASVVCLLNNFYPREAKVQWKVDNALQSGNSQESVTEQDSKDSTYSLSSTLTLSKADYEKHKVYACEVTHQGLSSPVTKSFNRGEC",104 % of control
5,"GpH7-A5/GpH7-B3 variant G236_09D/GpL16-k0 (antibody, human IgG1, kappa, heterodimerized; mutation in the B3 H chain only; also called He Ab G236_09D) heavy 1: not shown heavy 2: not shown light: DIVMTQSPLSLPVTPGEPASISCQASESLVHSNRNTYLHWYLQKPGQSPQLLIYKVSNRFSGVPDRFSGSGSGTDFTLKISRVEAEDVGVYYCSQNTHVPPTFGQGTKVEIERTVAAPSVFIFPPSDEQLKSGTASVVCLLNNFYPREAKVQWKVDNALQSGNSQESVTEQDSKDSTYSLSSTLTLSKADYEKHKVYACEVTHQGLSSPVTKSFNRGEC",167 % of control
6,"GpH7-A5/GpH7-B3 variant G236_10E/GpL16-k0 (antibody, human IgG1, kappa, heterodimerized; mutation in the B3 H chain only; also called He Ab G236_10E) heavy 1: not shown heavy 2: not shown light: DIVMTQSPLSLPVTPGEPASISCQASESLVHSNRNTYLHWYLQKPGQSPQLLIYKVSNRFSGVPDRFSGSGSGTDFTLKISRVEAEDVGVYYCSQNTHVPPTFGQGTKVEIERTVAAPSVFIFPPSDEQLKSGTASVVCLLNNFYPREAKVQWKVDNALQSGNSQESVTEQDSKDSTYSLSSTLTLSKADYEKHKVYACEVTHQGLSSPVTKSFNRGEC",110 % of control
7,"GpH7-A5/GpH7-B3 variant G237_04F/GpL16-k0 (antibody, human IgG1, kappa, heterodimerized; mutation in the B3 H chain only; also called He Ab G237_04F) heavy 1: not shown heavy 2: not shown light: DIVMTQSPLSLPVTPGEPASISCQASESLVHSNRNTYLHWYLQKPGQSPQLLIYKVSNRFSGVPDRFSGSGSGTDFTLKISRVEAEDVGVYYCSQNTHVPPTFGQGTKVEIERTVAAPSVFIFPPSDEQLKSGTASVVCLLNNFYPREAKVQWKVDNALQSGNSQESVTEQDSKDSTYSLSSTLTLSKADYEKHKVYACEVTHQGLSSPVTKSFNRGEC",149 % of control
8,"GpH7-A5/GpH7-B3 variant G237_20W/GpL16-k0 (antibody, human IgG1, kappa, heterodimerized; mutation in the B3 H chain only; also called He Ab G237_20W) heavy 1: not shown heavy 2: not shown light: DIVMTQSPLSLPVTPGEPASISCQASESLVHSNRNTYLHWYLQKPGQSPQLLIYKVSNRFSGVPDRFSGSGSGTDFTLKISRVEAEDVGVYYCSQNTHVPPTFGQGTKVEIERTVAAPSVFIFPPSDEQLKSGTASVVCLLNNFYPREAKVQWKVDNALQSGNSQESVTEQDSKDSTYSLSSTLTLSKADYEKHKVYACEVTHQGLSSPVTKSFNRGEC",193 % of control
9,"GpH7-A5/GpH7-B3 variant H268_01G/GpL16-k0 (antibody, human IgG1, kappa, heterodimerized; mutation in the B3 H chain only; also called He Ab H268_01G) heavy 1: not shown heavy 2: not shown light: DIVMTQSPLSLPVTPGEPASISCQASESLVHSNRNTYLHWYLQKPGQSPQLLIYKVSNRFSGVPDRFSGSGSGTDFTLKISRVEAEDVGVYYCSQNTHVPPTFGQGTKVEIERTVAAPSVFIFPPSDEQLKSGTASVVCLLNNFYPREAKVQWKVDNALQSGNSQESVTEQDSKDSTYSLSSTLTLSKADYEKHKVYACEVTHQGLSSPVTKSFNRGEC",144 % of control
10,"GpH7-A5/GpH7-B3 variant H268_09D/GpL16-k0 (antibody, human IgG1, kappa, heterodimerized; mutation in the B3 H chain only; also called He Ab H268_09D) heavy 1: not shown heavy 2: not shown light: DIVMTQSPLSLPVTPGEPASISCQASESLVHSNRNTYLHWYLQKPGQSPQLLIYKVSNRFSGVPDRFSGSGSGTDFTLKISRVEAEDVGVYYCSQNTHVPPTFGQGTKVEIERTVAAPSVFIFPPSDEQLKSGTASVVCLLNNFYPREAKVQWKVDNALQSGNSQESVTEQDSKDSTYSLSSTLTLSKADYEKHKVYACEVTHQGLSSPVTKSFNRGEC",239 % of control
11,"GpH7-A5/GpH7-B3 variant H268_10E/GpL16-k0 (antibody, human IgG1, kappa, heterodimerized; mutation in the B3 H chain only; also called He Ab H268_10E) heavy 1: not shown heavy 2: not shown light: DIVMTQSPLSLPVTPGEPASISCQASESLVHSNRNTYLHWYLQKPGQSPQLLIYKVSNRFSGVPDRFSGSGSGTDFTLKISRVEAEDVGVYYCSQNTHVPPTFGQGTKVEIERTVAAPSVFIFPPSDEQLKSGTASVVCLLNNFYPREAKVQWKVDNALQSGNSQESVTEQDSKDSTYSLSSTLTLSKADYEKHKVYACEVTHQGLSSPVTKSFNRGEC",230 % of control
12,"GpH7-A5/GpH7-B3 variant H268_13S/GpL16-k0 (antibody, human IgG1, kappa, heterodimerized; mutation in the B3 H chain only; also called He Ab H268_13S) heavy 1: not shown heavy 2: not shown light: DIVMTQSPLSLPVTPGEPASISCQASESLVHSNRNTYLHWYLQKPGQSPQLLIYKVSNRFSGVPDRFSGSGSGTDFTLKISRVEAEDVGVYYCSQNTHVPPTFGQGTKVEIERTVAAPSVFIFPPSDEQLKSGTASVVCLLNNFYPREAKVQWKVDNALQSGNSQESVTEQDSKDSTYSLSSTLTLSKADYEKHKVYACEVTHQGLSSPVTKSFNRGEC",160 % of control
13,"GpH7-A5/GpH7-B3 variant H268_18N/GpL16-k0 (antibody, human IgG1, kappa, heterodimerized; mutation in the B3 H chain only; also called He Ab H268_18N) heavy 1: not shown heavy 2: not shown light: DIVMTQSPLSLPVTPGEPASISCQASESLVHSNRNTYLHWYLQKPGQSPQLLIYKVSNRFSGVPDRFSGSGSGTDFTLKISRVEAEDVGVYYCSQNTHVPPTFGQGTKVEIERTVAAPSVFIFPPSDEQLKSGTASVVCLLNNFYPREAKVQWKVDNALQSGNSQESVTEQDSKDSTYSLSSTLTLSKADYEKHKVYACEVTHQGLSSPVTKSFNRGEC",156 % of control

# Target: T1, FcγRIIb extracellular domain with …
# Test: SPR (Biacore), captured antibody, FcγRIIb analyte; binding relative to GpH7-B3/GpL16-k0 = 100
row,Binder,Ho/Con_2b
1,"GpH7-B3 variant S267_19Q/GpL16-k0 (antibody, human IgG1, kappa, homodimerized; mutation in both H chains; also called Ho Ab S267_19Q) heavy: not shown light: DIVMTQSPLSLPVTPGEPASISCQASESLVHSNRNTYLHWYLQKPGQSPQLLIYKVSNRFSGVPDRFSGSGSGTDFTLKISRVEAEDVGVYYCSQNTHVPPTFGQGTKVEIERTVAAPSVFIFPPSDEQLKSGTASVVCLLNNFYPREAKVQWKVDNALQSGNSQESVTEQDSKDSTYSLSSTLTLSKADYEKHKVYACEVTHQGLSSPVTKSFNRGEC",185 % of control
2,"GpH7-B3 variant S324_06M/GpL16-k0 (antibody, human IgG1, kappa, homodimerized; mutation in both H chains; also called Ho Ab S324_06M) heavy: not shown light: DIVMTQSPLSLPVTPGEPASISCQASESLVHSNRNTYLHWYLQKPGQSPQLLIYKVSNRFSGVPDRFSGSGSGTDFTLKISRVEAEDVGVYYCSQNTHVPPTFGQGTKVEIERTVAAPSVFIFPPSDEQLKSGTASVVCLLNNFYPREAKVQWKVDNALQSGNSQESVTEQDSKDSTYSLSSTLTLSKADYEKHKVYACEVTHQGLSSPVTKSFNRGEC",104 % of control
3,"GpH7-B3 variant S337_16H/GpL16-k0 (antibody, human IgG1, kappa, homodimerized; mutation in both H chains; also called Ho Ab S337_16H) heavy: not shown light: DIVMTQSPLSLPVTPGEPASISCQASESLVHSNRNTYLHWYLQKPGQSPQLLIYKVSNRFSGVPDRFSGSGSGTDFTLKISRVEAEDVGVYYCSQNTHVPPTFGQGTKVEIERTVAAPSVFIFPPSDEQLKSGTASVVCLLNNFYPREAKVQWKVDNALQSGNSQESVTEQDSKDSTYSLSSTLTLSKADYEKHKVYACEVTHQGLSSPVTKSFNRGEC",103 % of control
4,"GpH7-B3 variant T335_07I/GpL16-k0 (antibody, human IgG1, kappa, homodimerized; mutation in both H chains; also called Ho Ab T335_07I) heavy: not shown light: DIVMTQSPLSLPVTPGEPASISCQASESLVHSNRNTYLHWYLQKPGQSPQLLIYKVSNRFSGVPDRFSGSGSGTDFTLKISRVEAEDVGVYYCSQNTHVPPTFGQGTKVEIERTVAAPSVFIFPPSDEQLKSGTASVVCLLNNFYPREAKVQWKVDNALQSGNSQESVTEQDSKDSTYSLSSTLTLSKADYEKHKVYACEVTHQGLSSPVTKSFNRGEC",104 % of control
5,"GpH7-B3 variant T335_10E/GpL16-k0 (antibody, human IgG1, kappa, homodimerized; mutation in both H chains; also called Ho Ab T335_10E) heavy: not shown light: DIVMTQSPLSLPVTPGEPASISCQASESLVHSNRNTYLHWYLQKPGQSPQLLIYKVSNRFSGVPDRFSGSGSGTDFTLKISRVEAEDVGVYYCSQNTHVPPTFGQGTKVEIERTVAAPSVFIFPPSDEQLKSGTASVVCLLNNFYPREAKVQWKVDNALQSGNSQESVTEQDSKDSTYSLSSTLTLSKADYEKHKVYACEVTHQGLSSPVTKSFNRGEC",108 % of control
6,"GpH7-B3 variant T335_15Y/GpL16-k0 (antibody, human IgG1, kappa, homodimerized; mutation in both H chains; also called Ho Ab T335_15Y) heavy: not shown light: DIVMTQSPLSLPVTPGEPASISCQASESLVHSNRNTYLHWYLQKPGQSPQLLIYKVSNRFSGVPDRFSGSGSGTDFTLKISRVEAEDVGVYYCSQNTHVPPTFGQGTKVEIERTVAAPSVFIFPPSDEQLKSGTASVVCLLNNFYPREAKVQWKVDNALQSGNSQESVTEQDSKDSTYSLSSTLTLSKADYEKHKVYACEVTHQGLSSPVTKSFNRGEC",104 % of control
7,"GpH7-B3 variant V266_06M/GpL16-k0 (antibody, human IgG1, kappa, homodimerized; mutation in both H chains; also called Ho Ab V266_06M) heavy: not shown light: DIVMTQSPLSLPVTPGEPASISCQASESLVHSNRNTYLHWYLQKPGQSPQLLIYKVSNRFSGVPDRFSGSGSGTDFTLKISRVEAEDVGVYYCSQNTHVPPTFGQGTKVEIERTVAAPSVFIFPPSDEQLKSGTASVVCLLNNFYPREAKVQWKVDNALQSGNSQESVTEQDSKDSTYSLSSTLTLSKADYEKHKVYACEVTHQGLSSPVTKSFNRGEC",231 % of control
8,"GpH7-B3 variant Y296_20W/GpL16-k0 (antibody, human IgG1, kappa, homodimerized; mutation in both H chains; also called Ho Ab Y296_20W) heavy: not shown light: DIVMTQSPLSLPVTPGEPASISCQASESLVHSNRNTYLHWYLQKPGQSPQLLIYKVSNRFSGVPDRFSGSGSGTDFTLKISRVEAEDVGVYYCSQNTHVPPTFGQGTKVEIERTVAAPSVFIFPPSDEQLKSGTASVVCLLNNFYPREAKVQWKVDNALQSGNSQESVTEQDSKDSTYSLSSTLTLSKADYEKHKVYACEVTHQGLSSPVTKSFNRGEC",103 % of control

# Reference: US20180155451A1 (published 2018)
